Assay [1] addresses T1, COPB2_(1–304), N-terminal WD repeat of COPB2 (S. cerevisiae, UniProt P41811 1-304).
T1 construct: COPB2 (coatomer beta'), residues 1-304, N-terminal WD repeat domain; residues are counted in 'Saccharomyces cerevisiae COPB2 numbering'; PDB 2YNN (COPB2 1-304) served as search model; codon-optimised synthetic gene; also called WD-repeat domain of COPB2; source: E. coli BL21(DE3), purified (Ni-NTA, tag cleavage, ion exchange, SEC); not shown: 6xHis-Sumo3, N-terminal, cleaved
T1 sequence (looked up): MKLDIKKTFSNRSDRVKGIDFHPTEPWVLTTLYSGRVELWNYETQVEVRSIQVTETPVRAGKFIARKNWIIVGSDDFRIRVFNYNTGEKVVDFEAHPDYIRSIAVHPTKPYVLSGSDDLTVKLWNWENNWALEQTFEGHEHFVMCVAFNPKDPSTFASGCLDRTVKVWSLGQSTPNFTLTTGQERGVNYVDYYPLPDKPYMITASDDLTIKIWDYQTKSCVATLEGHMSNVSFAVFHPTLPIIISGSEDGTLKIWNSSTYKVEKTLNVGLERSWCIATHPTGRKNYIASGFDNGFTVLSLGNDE
Description: ITC; 450 μM of each peptide titrated into 20 μM COPB2 1-304; 25°C; 150 mM NaCl, 0.5 mM TCEP, 25 mM Hepes pH 7.5; one-site model. The following applies: both partners purified. On the technique in general: Isothermal titration calorimetry measures the heat released or taken up as one component is titrated into another.

In assay [2] the target is T2, COPB2_(1–304), N-terminal WD repeat of COPB2 (S. cerevisiae, UniProt P41811 1-304).
T2 chain: T1 sequence (looked up)
Description: ITC.

B1: Wnt_(252–257) peptide (LKIKKP) (peptide)
peptide: LKIKKP
notes: also called C-terminal half of the polypeptide
For B1, the Kd (commonly the concentration at which binding is half-saturated) in assay [1] is 37.2 µM.

B2: exosome-binding peptide (EBP), 18-amino acid polypeptide of Wnt7a (240-257) (peptide)
peptide: PVRASRNKRPTFLKIKKP
notes: also called 18–amino acid EBP polypeptide
As for B2, the Kd in assay [1] came to 11.6 µM.

B3: EBP peptide K256A (peptide)
chain: PVRASRNKRPTFLKIKAP
In assay [2], B3 returned a Kd of 6 µM.

B4: EBP peptide K253A (peptide)
chain: PVRASRNKRPTFLAIKKP
B4 returned a Kd in assay [2] of 47.2 µM.
